The values below come from patent US20110189729.

In this series the target is lambda integrase Int-h/218 h/218 mutant (substitutions not given) (Bacteriophage lambda) (UniProt P03700). The series is described as follows: cell_activity. As to conditions: CHO-DG44.

Take “TCTGTTACAGGTCACTAATACCATCTAAGTAGTTGATTCATAGTGACTGCATATGTTGTGTTTTACAGTATTATGTAGTCTGTTTTTTATGCAAAATCTAATTTAATATATTGATATTTATATCATTTTACGTTTCTCGTTCAGCTTTTTTATACTAAGTTGGCATTATAAAAAAGCATTGCTTATCAATTTGTTGCAACGAACAGGTCACTATCAGTCAAAATAAAATCATTATTTGATTTC / GAAATCAAATAATGATTTTATTTTGACTGATAGTGACCTGTTCGTTGCAACAAATTGATAAGCAATGCTTTTTTATAATGCCAACTTAGTATAAAAAAGCTGAACGAGAAACGTAAAATGATATAAATATCAATATATTAAATTAGATTTTGCATAAAAAACAGACTACATAATACTGTAAAACACAACATATGCAGTCACTATGAATCAACTACTTAGATGGTATTAGTGACCTGTAACAGA / GCTGTTACAGGTCACTAATACCATCTATGTAGTTGATTCATATTGTCTGCATATCTTGTGTTTTACAGTATTATCTAGTCTGTTTTTTATCCAAAATCTAATTTATTATATTGATATTTATATCATTTTACGTTTCTCGTTCAGCTTTTTTATACTAACTTG / CAAGTTAGTATAAAAAAGCTGAACGAGAAACGTAAAATGATATAAATATCAATATAATAAATTAGATTTTGGATAAAAAACAGACTAGATAATACTGTAAAACACAAGATATGCAGACAATATGAATCAACTACATAGATGGTATTAGTGACCTGTAACAGC [attP ; attR.a]”: the activity (% fluorescent cells) (attP x attR.a, with IHF and XIS) worked out at 1.5.
For the setting “attP x attB, with IHF, 1.1% without IHF plasmid”, “TCTGTTACAGGTCACTAATACCATCTAAGTAGTTGATTCATAGTGACTGCATATGTTGTGTTTTACAGTATTATGTAGTCTGTTTTTTATGCAAAATCTAATTTAATATATTGATATTTATATCATTTTACGTTTCTCGTTCAGCTTTTTTATACTAAGTTGGCATTATAAAAAAGCATTGCTTATCAATTTGTTGCAACGAACAGGTCACTATCAGTCAAAATAAAATCATTATTTGATTTC / GAAATCAAATAATGATTTTATTTTGACTGATAGTGACCTGTTCGTTGCAACAAATTGATAAGCAATGCTTTTTTATAATGCCAACTTAGTATAAAAAAGCTGAACGAGAAACGTAAAATGATATAAATATCAATATATTAAATTAGATTTTGCATAAAAAACAGACTACATAATACTGTAAAACACAACATATGCAGTCACTATGAATCAACTACTTAGATGGTATTAGTGACCTGTAACAGA / CTGCTTTTTTATACTAACTTG / CAAGTTAGTATAAAAAAGCAG [attP ; attB]” gave an activity (% fluorescent cells) of 1.7.
As to “GCTGTTACAGGTCACTAATACCATCTATGTAGTTGATTCATATTGTCTGCATATCTTGTGTTTTACAGTATTATCTAGTCTGTTTTTTATCCAAAATCTAATTTATTATATTGATATTTATATCATTTTACGTTTCTCGTTCAGCTTTTTTATACTAAGTTGGCATTATAAAAAAGCATTGCTTATCAATTTGTTGCAACGAACAGGTCACTATCAGTCAAAATATAATCATTATTTGATTTC / GAAATCAAATAATGATTATATTTTGACTGATAGTGACCTGTTCGTTGCAACAAATTGATAAGCAATGCTTTTTTATAATGCCAACTTAGTATAAAAAAGCTGAACGAGAAACGTAAAATGATATAAATATCAATATAATAAATTAGATTTTGGATAAAAAACAGACTAGATAATACTGTAAAACACAAGATATGCAGACAATATGAATCAACTACATAGATGGTATTAGTGACCTGTAACAGC / GCTGTTACAGGTCACTAATACCATCTATGTAGTTGATTCATATTGTCTGCATATCTTGTGTTTTACAGTATTATCTAGTCTGTTTTTTATCCAAAATCTAATTTATTATATTGATATTTATATCATTTTACGTTTCTCGTTCAGCTTTTTTATACTAAGTTGGCATTATAAAAAAGCATTGCTTATCAATTTGTTGCAACGAACAGGTCACTATCAGTCAAAATATAATCATTATTTGATTTC / GAAATCAAATAATGATTATATTTTGACTGATAGTGACCTGTTCGTTGCAACAAATTGATAAGCAATGCTTTTTTATAATGCCAACTTAGTATAAAAAAGCTGAACGAGAAACGTAAAATGATATAAATATCAATATAATAAATTAGATTTTGGATAAAAAACAGACTAGATAATACTGTAAAACACAAGATATGCAGACAATATGAATCAACTACATAGATGGTATTAGTGACCTGTAACAGC [attP.a ; attP.a]”, the activity (% fluorescent cells) (attP.a x attP.a, no IHF plasmid) worked out at 1.9.
“CTGCTTTTTTATACTAAGTTGGCATTATAAAAAAGCATTGCTTATCAATTTGTTGCAACGAACAGGTCACTATCAGTCAAAATAAAATCATTATTTGATTTC / GAAATCAAATAATGATTTTATTTTGACTGATAGTGACCTGTTCGTTGCAACAAATTGATAAGCAATGCTTTTTTATAATGCCAACTTAGTATAAAAAAGCAG / TCTGTTACAGGTCACTAATACCATCTAAGTAGTTGATTCATAGTGACTGCATATGTTGTGTTTTACAGTATTATGTAGTCTGTTTTTTATGCAAAATCTAATTTAATATATTGATATTTATATCATTTTACGTTTCTCGTTCAGCTTTTTTATACTAACTTG / CAAGTTAGTATAAAAAAGCTGAACGAGAAACGTAAAATGATATAAATATCAATATATTAAATTAGATTTTGCATAAAAAACAGACTACATAATACTGTAAAACACAACATATGCAGTCACTATGAATCAACTACTTAGATGGTATTAGTGACCTGTAACAGA [attL ; attR]” returned an activity (% fluorescent cells) (attL x attR, with IHF and XIS, PCR verified) of 3.2.
In the case of “CTGCTTTTTTATACTAAGTTGGCATTATAAAAAAGCATTGCTTATCAATTTGTTGCAACGAACAGGTCACTATCAGTCAAAATATAATCATTATTTGATTTC / GAAATCAAATAATGATTATATTTTGACTGATAGTGACCTGTTCGTTGCAACAAATTGATAAGCAATGCTTTTTTATAATGCCAACTTAGTATAAAAAAGCAG / CTGCTTTTTTATACTAACTTG / CAAGTTAGTATAAAAAAGCAG [attL.a ; attB]”, the activity (% fluorescent cells) (attL.a x attB, with IHF and XIS, PCR verified) is 2.
As for “GCTGTTACAGGTCACTAATACCATCTACGTAGTTGATTCATATTGTCTGCATATCTTGTGTTTTACAGTATTATCTAGTCTGTTTTTTATCCAAAATCTAATTTATTATATTGATATTTATATCATTTTACGTTTCTCGTTCAGCTTTTTTATACTAAGTTGGCATTATAAAAAAGCATTGCTTATCAATTTGTTGCAACGAACAGGTCACTATCAGTCAAAATATAATCATTATTTGATTTC / GAAATCAAATAATGATTATATTTTGACTGATAGTGACCTGTTCGTTGCAACAAATTGATAAGCAATGCTTTTTTATAATGCCAACTTAGTATAAAAAAGCTGAACGAGAAACGTAAAATGATATAAATATCAATATAATAAATTAGATTTTGGATAAAAAACAGACTAGATAATACTGTAAAACACAAGATATGCAGACAATATGAATCAACTACGTAGATGGTATTAGTGACCTGTAACAGC / CTGCTTTTTTATACTAACTTG / CAAGTTAGTATAAAAAAGCAG [attP.b ; attB]”, for the setting “attP.b x attB, with IHF, 0.3% without IHF plasmid”, the activity (% fluorescent cells) was found to be 1.2.
For the setting “attL.a x attR.b, with IHF and XIS, PCR verified”, “CTGCTTTTTTATACTAAGTTGGCATTATAAAAAAGCATTGCTTATCAATTTGTTGCAACGAACAGGTCACTATCAGTCAAAATATAATCATTATTTGATTTC / GAAATCAAATAATGATTATATTTTGACTGATAGTGACCTGTTCGTTGCAACAAATTGATAAGCAATGCTTTTTTATAATGCCAACTTAGTATAAAAAAGCAG / GCTGTTACAGGTCACTAATACCATCTACGTAGTTGATTCATATTGTCTGCATATCTTGTGTTTTACAGTATTATCTAGTCTGTTTTTTATCCAAAATCTAATTTATTATATTGATATTTATATCATTTTACGTTTCTCGTTCAGCTTTTTTATACTAACTTG / CAAGTTAGTATAAAAAAGCTGAACGAGAAACGTAAAATGATATAAATATCAATATAATAAATTAGATTTTGGATAAAAAACAGACTAGATAATACTGTAAAACACAAGATATGCAGACAATATGAATCAACTACGTAGATGGTATTAGTGACCTGTAACAGC [attL.a ; attR.b]” registered an activity (% fluorescent cells) of 1.2.
“CTGCTTTTTTATACTAAGTTGGCATTATAAAAAAGCATTGCTTATCAATTTGTTGCAACGAACAGGTCACTATCAGTCAAAATAAAATCATTATTTGATTTC / GAAATCAAATAATGATTTTATTTTGACTGATAGTGACCTGTTCGTTGCAACAAATTGATAAGCAATGCTTTTTTATAATGCCAACTTAGTATAAAAAAGCAG / CTGCTTTTTTATACTAACTTG / CAAGTTAGTATAAAAAAGCAG [attL ; attB]” returned an activity (% fluorescent cells) (attL x attB, with IHF and XIS, PCR verified) of 2.3.
